Assay results taken from patent EP4745153A1, “GLP-1, GIP AND GCG RECEPTOR […] USE THEREOF” (Jiangsu Hengrui Pharmaceuticals Co., Ltd., priority 2023, dated 2025).
Like-named read-outs stand apart in the source and are kept apart here. Starred links: 1 amine or outer side, 2 acyl side, 3 side chain; linkers in the order of their positions; H or OH if unused. Non-standard residues stand in square brackets, D forms with d. Groups on a side chain read outwards from the residue. No end group written: not given here. *: point of attachment. C20 diacid = O=C(O)CCCCCCCCCCCCCCCCCCC(=O)*; γGlu = O=C(O)[C@H](CCC(=O)[*:2])N[*:1]; αMeL = CC(C)C[C@](C)(N)C(=O)O; αMeK = C[C@](N)(CCCCN)C(=O)O; Iva = CC[C@](C)(N)C(=O)O; AEEA = NCCOCCOCC(=O)O; Aib = CC(C)(N)C(=O)O

T1: human glucose-dependent insulinotropic polypeptide receptor (human, UniProt P48546 22-466)
T1 sequence (looked up): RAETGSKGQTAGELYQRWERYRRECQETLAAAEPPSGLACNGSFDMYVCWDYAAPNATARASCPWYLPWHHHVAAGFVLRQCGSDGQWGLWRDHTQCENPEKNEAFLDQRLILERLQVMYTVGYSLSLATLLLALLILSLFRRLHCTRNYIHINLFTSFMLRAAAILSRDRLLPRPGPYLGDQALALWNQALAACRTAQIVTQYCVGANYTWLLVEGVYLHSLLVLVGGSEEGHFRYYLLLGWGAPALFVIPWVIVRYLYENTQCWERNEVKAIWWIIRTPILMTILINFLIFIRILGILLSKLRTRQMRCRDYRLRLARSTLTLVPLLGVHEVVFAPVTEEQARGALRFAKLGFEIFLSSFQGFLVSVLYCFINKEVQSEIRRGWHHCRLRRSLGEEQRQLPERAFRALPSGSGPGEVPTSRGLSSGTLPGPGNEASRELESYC


Tests used:
Assay in all cases: cell-based or functional assay
[1] = biological target: T2, human glucagon-like peptide-1 receptor (human, UniProt P43220 24-463)
[2] = biological target: T1, human glucose-dependent insulinotropic …
human glucagon receptor [3] = biological target: T3, human glucagon receptor (human, UniProt P47871 26-477)
T3 sequence (P47871 26-477): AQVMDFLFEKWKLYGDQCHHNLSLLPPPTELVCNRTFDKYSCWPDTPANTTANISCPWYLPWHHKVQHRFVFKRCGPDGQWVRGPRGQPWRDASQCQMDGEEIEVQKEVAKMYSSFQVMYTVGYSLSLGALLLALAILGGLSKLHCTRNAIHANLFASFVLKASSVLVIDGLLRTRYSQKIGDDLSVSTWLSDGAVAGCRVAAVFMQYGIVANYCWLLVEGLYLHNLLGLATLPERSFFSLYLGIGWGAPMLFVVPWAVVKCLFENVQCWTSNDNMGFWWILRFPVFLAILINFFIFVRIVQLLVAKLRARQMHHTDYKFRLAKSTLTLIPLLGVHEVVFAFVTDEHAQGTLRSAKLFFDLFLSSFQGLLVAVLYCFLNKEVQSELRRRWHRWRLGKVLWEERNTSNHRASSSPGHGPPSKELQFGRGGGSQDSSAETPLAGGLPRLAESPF

[4] = biological target: T2, human glucagon-like peptide-1 receptor; remark: listed apart in the source
[5] = biological target: T1, human glucose-dependent insulinotropic …; remark: listed apart in the source
human glucagon receptor [6] = biological target: T3, human glucagon receptor; remark: listed apart in the source

Binder	Activity against human GLP-1R (EC50 nM) [1]	Activity against human GIPR (EC50 nM) [2]	Activity against human GCGR (EC50 nM) (human glucagon receptor [3])	Activity against human GLP-1R (EC50 nM) [4]	Activity against human GIPR (EC50 nM) [5]	Activity against human GCGR (EC50 nM) (human glucagon receptor [6])
H[Aib]HGTFTSDYSILLEK([AEEA-AEEA-γGlu-C20 diacid])KAA[Iva]EFVEWLLAGGPSSGAPPPS-NH2 [Compound No. 0135]	0.013 nM	0.001 nM	0.019 nM			
H[Aib]HGTFTSDYSKYLEK([AEEA-AEEA-γGlu-C20 diacid])[αMeK]AAQEFVEWLLAGGPSSGAPPPS-NH2 (N-terminus assumed; SMILES CC(C)C[C@H](NC(=O)[C@H](CC(C)C)NC(=O)[C@H](Cc1c[nH]c2ccccc12)NC(=O)[C@H](CCC(=O)O)NC(=O)[C@@H](NC(=O)[C@H](Cc1ccccc1)NC(=O)[C@H](CCC(=O)O)NC(=O)[C@H](CCC(N)=O)NC(=O)[C@H](C)NC(=O)[C@H](C)NC(=O)[C@](C)(CCCCN)NC(=O)[C@H](CCCCNC(=O)COCCOCCNC(=O)COCCOCCNC(=O)CC[C@H](NC(=O)CCCCCCCCCCCCCCCCCCC(=O)O)C(=O)O)NC(=O)[C@H](CCC(=O)O)NC(=O)[C@H](CC(C)C)NC(=O)[C@H](Cc1ccc(O)cc1)NC(=O)[C@H](CCCCN)NC(=O)[C@H](CO)NC(=O)[C@H](Cc1ccc(O)cc1)NC(=O)[C@H](CC(=O)O)NC(=O)[C@H](CO)NC(=O)[C@@H](NC(=O)[C@H](Cc1ccccc1)NC(=O)[C@@H](NC(=O)CNC(=O)[C@H](Cc1c[nH]cn1)NC(=O)C(C)(C)NC(=O)[C@@H](N)Cc1c[nH]cn1)[C@@H](C)O)[C@@H](C)O)C(C)C)C(=O)N[C@@H](C)C(=O)NCC(=O)NCC(=O)N1CCC[C@H]1C(=O)N[C@@H](CO)C(=O)N[C@@H](CO)C(=O)NCC(=O)N[C@@H](C)C(=O)N1CCC[C@H]1C(=O)N1CCC[C@H]1C(=O)N1CCC[C@H]1C(=O)N[C@@H](CO)C(N)=O) [Compound No. 0109]				0.011 nM	0.027 nM	0.031 nM
H[Aib]HGTFTSDYSKY[αMeL]EK([AEEA-AEEA-γGlu-C20 diacid])KAAQEFVEWLLAGGPSSGAPPPS-NH2 (N-terminus assumed; SMILES CC(C)C[C@H](NC(=O)[C@H](CC(C)C)NC(=O)[C@H](Cc1c[nH]c2ccccc12)NC(=O)[C@H](CCC(=O)O)NC(=O)[C@@H](NC(=O)[C@H](Cc1ccccc1)NC(=O)[C@H](CCC(=O)O)NC(=O)[C@H](CCC(N)=O)NC(=O)[C@H](C)NC(=O)[C@H](C)NC(=O)[C@H](CCCCN)NC(=O)[C@H](CCCCNC(=O)COCCOCCNC(=O)COCCOCCNC(=O)CC[C@H](NC(=O)CCCCCCCCCCCCCCCCCCC(=O)O)C(=O)O)NC(=O)[C@H](CCC(=O)O)NC(=O)[C@](C)(CC(C)C)NC(=O)[C@H](Cc1ccc(O)cc1)NC(=O)[C@H](CCCCN)NC(=O)[C@H](CO)NC(=O)[C@H](Cc1ccc(O)cc1)NC(=O)[C@H](CC(=O)O)NC(=O)[C@H](CO)NC(=O)[C@@H](NC(=O)[C@H](Cc1ccccc1)NC(=O)[C@@H](NC(=O)CNC(=O)[C@H](Cc1c[nH]cn1)NC(=O)C(C)(C)NC(=O)[C@@H](N)Cc1c[nH]cn1)[C@@H](C)O)[C@@H](C)O)C(C)C)C(=O)N[C@@H](C)C(=O)NCC(=O)NCC(=O)N1CCC[C@H]1C(=O)N[C@@H](CO)C(=O)N[C@@H](CO)C(=O)NCC(=O)N[C@@H](C)C(=O)N1CCC[C@H]1C(=O)N1CCC[C@H]1C(=O)N1CCC[C@H]1C(=O)N[C@@H](CO)C(N)=O) [Compound No. 0108]				0.014 nM	0.078 nM	0.315 nM
H[Aib]HGTFTSDYSKYLEK([AEEA-AEEA-γGlu-C20 diacid])K[Aib]AQEFVEWLLAGGPSSGAPPPS-NH2 (N-terminus assumed; SMILES CC(C)C[C@H](NC(=O)[C@H](CC(C)C)NC(=O)[C@H](Cc1c[nH]c2ccccc12)NC(=O)[C@H](CCC(=O)O)NC(=O)[C@@H](NC(=O)[C@H](Cc1ccccc1)NC(=O)[C@H](CCC(=O)O)NC(=O)[C@H](CCC(N)=O)NC(=O)[C@H](C)NC(=O)C(C)(C)NC(=O)[C@H](CCCCN)NC(=O)[C@H](CCCCNC(=O)COCCOCCNC(=O)COCCOCCNC(=O)CC[C@H](NC(=O)CCCCCCCCCCCCCCCCCCC(=O)O)C(=O)O)NC(=O)[C@H](CCC(=O)O)NC(=O)[C@H](CC(C)C)NC(=O)[C@H](Cc1ccc(O)cc1)NC(=O)[C@H](CCCCN)NC(=O)[C@H](CO)NC(=O)[C@H](Cc1ccc(O)cc1)NC(=O)[C@H](CC(=O)O)NC(=O)[C@H](CO)NC(=O)[C@@H](NC(=O)[C@H](Cc1ccccc1)NC(=O)[C@@H](NC(=O)CNC(=O)[C@H](Cc1c[nH]cn1)NC(=O)C(C)(C)NC(=O)[C@@H](N)Cc1c[nH]cn1)[C@@H](C)O)[C@@H](C)O)C(C)C)C(=O)N[C@@H](C)C(=O)NCC(=O)NCC(=O)N1CCC[C@H]1C(=O)N[C@@H](CO)C(=O)N[C@@H](CO)C(=O)NCC(=O)N[C@@H](C)C(=O)N1CCC[C@H]1C(=O)N1CCC[C@H]1C(=O)N1CCC[C@H]1C(=O)N[C@@H](CO)C(N)=O) [Compound No. 0110]				0.016 nM	0.043 nM	0.044 nM
H[Aib]HGTFTSDLS[αMeK]LLEK([AEEA-AEEA-γGlu-C20 diacid])KAA[Iva]EFVEWLIEGGPSSGAPPPS-NH2 (N-terminus assumed; SMILES CC[C@H](C)[C@H](NC(=O)[C@H](CC(C)C)NC(=O)[C@H](Cc1c[nH]c2ccccc12)NC(=O)[C@H](CCC(=O)O)NC(=O)[C@@H](NC(=O)[C@H](Cc1ccccc1)NC(=O)[C@H](CCC(=O)O)NC(=O)[C@](C)(CC)NC(=O)[C@H](C)NC(=O)[C@H](C)NC(=O)[C@H](CCCCN)NC(=O)[C@H](CCCCNC(=O)COCCOCCNC(=O)COCCOCCNC(=O)CC[C@H](NC(=O)CCCCCCCCCCCCCCCCCCC(=O)O)C(=O)O)NC(=O)[C@H](CCC(=O)O)NC(=O)[C@H](CC(C)C)NC(=O)[C@H](CC(C)C)NC(=O)[C@](C)(CCCCN)NC(=O)[C@H](CO)NC(=O)[C@H](CC(C)C)NC(=O)[C@H](CC(=O)O)NC(=O)[C@H](CO)NC(=O)[C@@H](NC(=O)[C@H](Cc1ccccc1)NC(=O)[C@@H](NC(=O)CNC(=O)[C@H](Cc1c[nH]cn1)NC(=O)C(C)(C)NC(=O)[C@@H](N)Cc1c[nH]cn1)[C@@H](C)O)[C@@H](C)O)C(C)C)C(=O)N[C@@H](CCC(=O)O)C(=O)NCC(=O)NCC(=O)N1CCC[C@H]1C(=O)N[C@@H](CO)C(=O)N[C@@H](CO)C(=O)NCC(=O)N[C@@H](C)C(=O)N1CCC[C@H]1C(=O)N1CCC[C@H]1C(=O)N1CCC[C@H]1C(=O)N[C@@H](CO)C(N)=O) [Compound No. 0133]	0.016 nM	0.002 nM	0.03 nM			
H[Aib]HGTFTSDLS[αMeK]ILEK([AEEA-AEEA-γGlu-C20 diacid])KAA[Iva]EFVEWLIEGGPSSGAPPPS-NH2 (N-terminus assumed; SMILES CC[C@H](C)[C@H](NC(=O)[C@H](CC(C)C)NC(=O)[C@H](Cc1c[nH]c2ccccc12)NC(=O)[C@H](CCC(=O)O)NC(=O)[C@@H](NC(=O)[C@H](Cc1ccccc1)NC(=O)[C@H](CCC(=O)O)NC(=O)[C@](C)(CC)NC(=O)[C@H](C)NC(=O)[C@H](C)NC(=O)[C@H](CCCCN)NC(=O)[C@H](CCCCNC(=O)COCCOCCNC(=O)COCCOCCNC(=O)CC[C@H](NC(=O)CCCCCCCCCCCCCCCCCCC(=O)O)C(=O)O)NC(=O)[C@H](CCC(=O)O)NC(=O)[C@H](CC(C)C)NC(=O)[C@@H](NC(=O)[C@](C)(CCCCN)NC(=O)[C@H](CO)NC(=O)[C@H](CC(C)C)NC(=O)[C@H](CC(=O)O)NC(=O)[C@H](CO)NC(=O)[C@@H](NC(=O)[C@H](Cc1ccccc1)NC(=O)[C@@H](NC(=O)CNC(=O)[C@H](Cc1c[nH]cn1)NC(=O)C(C)(C)NC(=O)[C@@H](N)Cc1c[nH]cn1)[C@@H](C)O)[C@@H](C)O)[C@@H](C)CC)C(C)C)C(=O)N[C@@H](CCC(=O)O)C(=O)NCC(=O)NCC(=O)N1CCC[C@H]1C(=O)N[C@@H](CO)C(=O)N[C@@H](CO)C(=O)NCC(=O)N[C@@H](C)C(=O)N1CCC[C@H]1C(=O)N1CCC[C@H]1C(=O)N1CCC[C@H]1C(=O)N[C@@H](CO)C(N)=O) [Compound No. 0134]	0.017 nM	0.002 nM	0.025 nM			
